Patent publication US20100074892A1

Molecular target: recombinant anthrax protective antigen (PA) (Bacillus anthracis) (UniProt P13423)
Test: SPR (Biacore)

Sequence of recombinant anthrax protective antigen (PA) (Bacillus anthracis) (P13423 30-764 limits assumed): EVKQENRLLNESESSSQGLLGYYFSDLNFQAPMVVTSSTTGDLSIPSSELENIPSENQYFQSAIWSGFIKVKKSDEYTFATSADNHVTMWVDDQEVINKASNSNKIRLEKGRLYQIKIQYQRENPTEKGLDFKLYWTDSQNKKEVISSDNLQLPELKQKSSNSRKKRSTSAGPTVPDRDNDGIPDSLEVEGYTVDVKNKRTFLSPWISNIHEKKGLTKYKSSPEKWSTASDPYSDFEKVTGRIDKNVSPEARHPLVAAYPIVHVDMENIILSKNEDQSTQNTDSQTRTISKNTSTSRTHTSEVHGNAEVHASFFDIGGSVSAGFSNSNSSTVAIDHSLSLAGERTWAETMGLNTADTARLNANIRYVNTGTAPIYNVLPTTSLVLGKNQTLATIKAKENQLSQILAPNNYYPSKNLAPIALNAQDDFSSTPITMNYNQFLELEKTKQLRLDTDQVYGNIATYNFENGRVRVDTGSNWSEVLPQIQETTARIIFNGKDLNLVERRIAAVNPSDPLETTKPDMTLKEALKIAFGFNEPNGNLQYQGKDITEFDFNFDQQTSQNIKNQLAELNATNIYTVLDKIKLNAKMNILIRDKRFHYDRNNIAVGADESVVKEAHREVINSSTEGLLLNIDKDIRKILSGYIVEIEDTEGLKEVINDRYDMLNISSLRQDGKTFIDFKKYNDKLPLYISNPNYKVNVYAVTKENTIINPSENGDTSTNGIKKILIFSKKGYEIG

Substance: mouse anti-PA monoclonal antibody 14B7
- Kd: 4 nM
